Data published in patent US20260241018A1 (BIOCYTOGEN PHARMACEUTICALS BEIJING, published 2026).

How the values were obtained:
[1] = target: T1, 5T4 on NCI-H226 cells, NCI-H2030 cells and HCC827 cells (UniProt Q13641 32-420, limits assumed); test: flow cytometry on NCI-H2030 cells, Alexa Fluor 647 anti-human IgG Fc secondary antibody, MFI
T1 construct: whole, on cells
T1 sequence (looked up): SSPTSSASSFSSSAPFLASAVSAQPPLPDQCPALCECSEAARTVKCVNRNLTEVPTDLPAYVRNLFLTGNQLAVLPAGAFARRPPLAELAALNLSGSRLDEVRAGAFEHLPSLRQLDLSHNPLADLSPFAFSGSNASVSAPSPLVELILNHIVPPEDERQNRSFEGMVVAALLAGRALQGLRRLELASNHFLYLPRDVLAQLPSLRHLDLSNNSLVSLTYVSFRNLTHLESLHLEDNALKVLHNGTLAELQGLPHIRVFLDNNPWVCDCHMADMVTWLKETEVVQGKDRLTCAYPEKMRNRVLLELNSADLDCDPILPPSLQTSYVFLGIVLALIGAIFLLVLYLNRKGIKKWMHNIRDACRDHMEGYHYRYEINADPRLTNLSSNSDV
Description: NCI-H226 cells, NCI-H2030 cells or HCC827 cells were plated in a 96-well plate at a density of 2×10⁵ cells/well. Serially diluted purified anti-5T4 antibody 32G1 or the positive control PF06263507 analog-SI (maximum concentration: 20 μg/mL, 2-fold dilutions, 12 gradients) were added to each well and were incubated at 4° C. for 30 minutes. Then, after one wash with PBS, the cells were incubated with the secondary antibody Alexa Fluor® 647 anti human IgG Fcγ (Jackson ImmunoResearch Laboratories, Inc., Cat #: 109-606-170) at 4° C. for 15 minutes before flow cytometry analysis.
The cells were collected, and the mean fluorescence intensity (MFI) was determined.

[2] = target: T2, monkey (Macaca fascicularis) 5T4 expressed on CHO-S cells (CHO-fas5T4 cells) (monkey (Macaca fascicularis), UniProt Q4R8Y9 35-355); test: flow cytometry, CHO-fas5T4 cells
T2 construct: also called monkey 5T4
T2 sequence: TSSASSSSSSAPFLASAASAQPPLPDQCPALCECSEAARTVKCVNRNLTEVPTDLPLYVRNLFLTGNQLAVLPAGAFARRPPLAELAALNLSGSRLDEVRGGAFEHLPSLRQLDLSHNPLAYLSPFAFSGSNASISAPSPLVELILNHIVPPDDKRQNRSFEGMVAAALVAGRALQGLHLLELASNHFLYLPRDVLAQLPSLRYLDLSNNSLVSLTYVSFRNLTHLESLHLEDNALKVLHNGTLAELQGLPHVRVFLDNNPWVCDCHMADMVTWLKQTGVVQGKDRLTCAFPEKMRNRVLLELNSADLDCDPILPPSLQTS
Description: CHO-h5T4 cells, CHO-m5T4 cells, CHO-fas5T4 cells or CHO-d5T4 cells were transferred to a 96-well plate at a density of 2×10⁵ cells/well respectively. The anti-5T4 antibodies were added to the 96-well plate, and incubated at 4° C. for 30 min. Then, the cells were incubated with the secondary antibody anti-hlgG-Fc-Alex Flour 647 (RL1-H) (Jackson ImmunoResearch Laboratories, Inc., Cat #: 109-606-170) at 4° C. in the dark for 15 minutes before flow cytometry analysis.

EC50 (read off the curve) [1]: ~0.2 µg/mL
Percentage of Positive Cells [2]: 53.2%
B1: 32G1 (antibody, V domains shown)
VH: QVQLVQSGGGLVKPGGSLRLSCVASGFTFSDYYMNWVRQAPGKGLEWISYVGTESIYTYYADTVKGRFTISRDNAKNSLYLQMNSLRAEDTALYYCARARDYNLYGMDVWGQGTTVTVSS
VL: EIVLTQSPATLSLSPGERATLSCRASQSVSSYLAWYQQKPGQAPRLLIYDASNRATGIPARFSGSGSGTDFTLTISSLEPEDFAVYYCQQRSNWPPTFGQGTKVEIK
notes: also called anti-5T4 antibody 32G1
